Read-outs that look alike come from different tables or passages of the source.
B1: S{Beta-179}-[2-[2-[[2-[2-[2-[[2-[2-[2-[[(4S)-4-carboxy-4-(15-carboxypentadecanoyl-amino)butanoyl]amino]ethoxy]ethoxy]acetyl]amino]ethoxy]ethoxy]acetyl]amino]-ethylamino]-2-oxoethyl]-Ala[Gln121,Leu168, … (protein)
chain: HPIPDSSPLLQFGGQVRQRYLYTDDAQQTEAHLEIREDGTVGGAADQSPESLLQLKALKPGVIQILGVKTSRFLCQRPDGALYGSLHFDPEACSFRELLLEDGYNVYQSEAHGLPLHLPGQKSPHRDPAPRGPARFLPLPGLPPALPEPPGILAPQPPDVGSSDPLSLVGPSQGRSPSCAS
B2: 4-[10-[[(1S)-4-[2-[2-[2-[2-[2-[2-[[(1S)-5-acetamido-1-carboxy-pentyl]amino]-2-oxo-ethoxy]ethoxy]ethylamino]-2-oxo-ethoxy]ethoxy]ethylamino]-1-carboxy-4-oxo-butyl]amino]-10-oxo-decoxy]benzoic … (protein)
chain: HPIPDSSPLLQFGGQVRQRYLYTDDAQQTEAHLEIREDGTVGGAADQSPESLLQLKALKPGVIQILGVKTSRFLCQRPDGALYGSLHFDPEACSFRELLLEDGYNVYQSEAHGLPLHLPGQKSPHRDPAPRGPARFLPLPGLPPALPEPPGILAPQPPDVGSSDPLSLVGPSQGRSPSYCS
B3: S{Beta-180}-[2-[2-[[2-[2-[2-[[2-[2-[2-[[(4S)-4-carboxy-4-(19-carboxynonadecanoyl-amino)butanoyl]amino]ethoxy]ethoxy]acetyl]amino]ethoxy]ethoxy]acetyl]amino]-ethylamino]-2-oxoethyl]-Ala[Gln121,Leu168,C … (protein)
chain: HPIPDSSPLLQFGGQVRQRYLYTDDAQQTEAHLEIREDGTVGGAADQSPESLLQLKALKPGVIQILGVKTSRFLCQRPDGALYGSLHFDPEACSFRELLLEDGYNVYQSEAHGLPLHLPGQKSPHRDPAPRGPARFLPLPGLPPALPEPPGILAPQPPDVGSSDPLSLVGPSQGRSPSYCS
B4: S{Beta-180}-2-aminoethylsulfanyl-Ala[Gln121, Leu168, Cys180]FGF21 (protein)
chain: AHPIPDSSPLLQFGGQVRQRYLYTDDAQQTEAHLEIREDGTVGGAADQSPESLLQLKALKPGVIQILGVKTSRFLCQRPDGALYGSLHFDPEACSFRELLLEDGYNVYQSEAHGLPLHLPGQKSPHRDPAPRGPARFLPLPGLPPALPEPPGILAPQPPDVGSSDPLSLVGPSQGRSPSYCS
modifications: N-terminal Ala; cysteamine disulfide on Cys180
B5: S{Beta-176}-2-aminoethylsulfanyl-Ala[Gln121, Leu168, Cys176]FGF21 (protein)
chain: AHPIPDSSPLLQFGGQVRQRYLYTDDAQQTEAHLEIREDGTVGGAADQSPESLLQLKALKPGVIQILGVKTSRFLCQRPDGALYGSLHFDPEACSFRELLLEDGYNVYQSEAHGLPLHLPGQKSPHRDPAPRGPARFLPLPGLPPALPEPPGILAPQPPDVGSSDPLSLVGPSQGRCPSYAS
modifications: cysteamine-protected Cys176
B6: S{Beta-181}-2-aminoethylsulfanyl-Ala[Gln121, Leu168, Cys181]FGF21 (protein)
chain: AHPIPDSSPLLQFGGQVRQRYLYTDDAQQTEAHLEIREDGTVGGAADQSPESLLQLKALKPGVIQILGVKTSRFLCQRPDGALYGSLHFDPEACSFRELLLEDGYNVYQSEAHGLPLHLPGQKSPHRDPAPRGPARFLPLPGLPPALPEPPGILAPQPPDVGSSDPLSLVGPSQGRSPSYAC
modifications: N-terminal Ala; cysteamine disulfide on Cys181
B7: S{Beta-179}-2-aminoethylsulfanyl-Ala[Gln121, Leu168, Cys179]FGF21 (protein)
chain: AHPIPDSSPLLQFGGQVRQRYLYTDDAQQTEAHLEIREDGTVGGAADQSPESLLQLKALKPGVIQILGVKTSRFLCQRPDGALYGSLHFDPEACSFRELLLEDGYNVYQSEAHGLPLHLPGQKSPHRDPAPRGPARFLPLPGLPPALPEPPGILAPQPPDVGSSDPLSLVGPSQGRSPSCAS
modifications: N-terminal Ala; cysteamine disulfide on Cys179
B8: S{Beta-178}-2-aminoethylsulfanyl-Ala[Gln121, Leu168, Cys178]FGF21 (protein)
chain: AHPIPDSSPLLQFGGQVRQRYLYTDDAQQTEAHLEIREDGTVGGAADQSPESLLQLKALKPGVIQILGVKTSRFLCQRPDGALYGSLHFDPEACSFRELLLEDGYNVYQSEAHGLPLHLPGQKSPHRDPAPRGPARFLPLPGLPPALPEPPGILAPQPPDVGSSDPLSLVGPSQGRSPCYAS
modifications: N-terminal Ala; cysteamine disulfide on Cys178
B9: S{Beta-180}-2-aminoethylsulfanyl-Ala[Gln121, Leu168, Cys180, des181]FGF21 (protein)
chain: AHPIPDSSPLLQFGGQVRQRYLYTDDAQQTEAHLEIREDGTVGGAADQSPESLLQLKALKPGVIQILGVKTSRFLCQRPDGALYGSLHFDPEACSFRELLLEDGYNVYQSEAHGLPLHLPGQKSPHRDPAPRGPARFLPLPGLPPALPEPPGILAPQPPDVGSSDPLSLVGPSQGRSPSYC
modifications: N-terminal Ala; cysteamine disulfide on Cys180

How the values were obtained:
[1] = target: 3T3-L1 adipocytes (Mus musculus, UniProt P16092+Q99N32); test: Glucose uptake in 3T3-L1 adipocytes; type: cell-based; details: stimulated 20 hours, 3H-deoxy-glucose
Sequence of 3T3-L1 adipocytes (Q99N32 whole entry): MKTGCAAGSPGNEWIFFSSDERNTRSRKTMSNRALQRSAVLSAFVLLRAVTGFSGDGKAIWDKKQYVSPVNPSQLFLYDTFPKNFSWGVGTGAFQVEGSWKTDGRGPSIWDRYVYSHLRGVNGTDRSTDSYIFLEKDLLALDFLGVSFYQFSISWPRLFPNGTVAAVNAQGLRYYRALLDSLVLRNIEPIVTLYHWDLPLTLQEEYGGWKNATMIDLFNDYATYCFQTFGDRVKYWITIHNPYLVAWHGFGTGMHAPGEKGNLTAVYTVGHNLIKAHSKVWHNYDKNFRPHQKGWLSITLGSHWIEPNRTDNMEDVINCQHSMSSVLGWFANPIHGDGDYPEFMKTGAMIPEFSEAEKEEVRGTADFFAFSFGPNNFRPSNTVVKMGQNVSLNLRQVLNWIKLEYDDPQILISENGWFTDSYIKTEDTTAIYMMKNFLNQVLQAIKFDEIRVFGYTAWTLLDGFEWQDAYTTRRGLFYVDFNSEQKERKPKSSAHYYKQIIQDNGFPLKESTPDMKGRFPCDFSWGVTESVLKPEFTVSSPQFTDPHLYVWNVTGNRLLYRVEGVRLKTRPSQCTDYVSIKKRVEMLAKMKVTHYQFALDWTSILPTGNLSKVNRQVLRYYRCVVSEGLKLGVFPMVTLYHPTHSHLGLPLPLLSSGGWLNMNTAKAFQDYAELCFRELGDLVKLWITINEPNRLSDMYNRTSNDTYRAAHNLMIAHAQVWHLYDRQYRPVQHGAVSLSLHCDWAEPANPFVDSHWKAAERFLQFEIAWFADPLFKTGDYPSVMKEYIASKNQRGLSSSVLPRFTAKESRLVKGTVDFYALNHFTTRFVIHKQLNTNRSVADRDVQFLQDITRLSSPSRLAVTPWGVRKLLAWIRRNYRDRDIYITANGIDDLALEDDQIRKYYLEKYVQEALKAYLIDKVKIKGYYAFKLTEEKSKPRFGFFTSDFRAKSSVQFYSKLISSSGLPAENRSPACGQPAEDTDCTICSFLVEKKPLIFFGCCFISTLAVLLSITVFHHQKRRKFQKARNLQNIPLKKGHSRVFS
Sequence of 3T3-L1 adipocytes (P16092 22-822): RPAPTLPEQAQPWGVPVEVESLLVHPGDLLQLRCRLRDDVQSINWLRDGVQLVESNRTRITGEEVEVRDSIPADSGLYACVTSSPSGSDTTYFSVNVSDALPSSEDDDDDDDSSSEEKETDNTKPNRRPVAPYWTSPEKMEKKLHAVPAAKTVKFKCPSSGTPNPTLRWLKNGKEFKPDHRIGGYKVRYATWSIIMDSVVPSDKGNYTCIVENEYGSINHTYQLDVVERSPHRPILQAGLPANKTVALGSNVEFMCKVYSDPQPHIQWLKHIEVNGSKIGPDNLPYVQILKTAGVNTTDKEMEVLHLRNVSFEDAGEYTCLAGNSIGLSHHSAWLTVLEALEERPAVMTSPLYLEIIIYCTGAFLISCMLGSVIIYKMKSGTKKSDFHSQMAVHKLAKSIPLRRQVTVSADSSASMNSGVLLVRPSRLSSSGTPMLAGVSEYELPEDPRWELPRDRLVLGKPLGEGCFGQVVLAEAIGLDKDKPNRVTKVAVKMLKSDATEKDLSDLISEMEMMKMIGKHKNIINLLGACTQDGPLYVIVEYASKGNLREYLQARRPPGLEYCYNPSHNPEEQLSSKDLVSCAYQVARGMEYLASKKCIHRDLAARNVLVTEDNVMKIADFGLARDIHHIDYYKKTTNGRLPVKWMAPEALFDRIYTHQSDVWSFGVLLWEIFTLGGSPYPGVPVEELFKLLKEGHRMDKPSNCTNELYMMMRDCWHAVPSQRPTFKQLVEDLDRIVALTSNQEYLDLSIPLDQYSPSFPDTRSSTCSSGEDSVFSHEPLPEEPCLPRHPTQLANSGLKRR
Experimental: The C-terminal modified analogues were tested for their ability to increase glucose uptake in 3T3-L1 mouse adipocytes. The following assay was used for determining the biological activity, or potency, of FGF21 analogues and derivatives of the invention.
The in vitro potency may also be determined in an assay with mouse 3T3-L1 adipocytes by testing the FGF21 analogues and derivatives for their ability to increase glucose uptake into adipocytes. Differentiated 3T3-L1 adipocytes endogenously express FGFR1c and BKL. The 3T3-L1 cells are unresponsive to FGF21 until after differentiated as differentiation lead to expression of the co-receptor BKL. Activation of the FGFR1 receptor/BKL complex increase the expression of glucose transporter 1 (GLUT1) and therefore FGF21 agonists will lead to an increased amount of glucose taken into the adipocytes in a dose responsive manner.
Mouse 3T3-L1 fibroblasts (e.g. available from ATCC, catalogue no. CL-173) were maintained in basal medium (DMEM (4500 mg/I Glucose) with 10% Fetal Bovine Serum (FBS) and 1% Penicillin/Streptomycin). The cells are not allowed to reach confluence and should be passed (transferred to new vials) before reaching approx. 60% of confluency (by visual inspection).
For the glucose uptake assay, cells were 15.000 cells/well in a 96 well plate (BIOCOAT), and when they reached confluency (high density, with a view to have differentiated adipose cells made), the medium was changed from basal medium to basal medium containing Troglitazone, IBMX, Dexamethasone (commercially available from, e.g., Sigma) and human insulin (commercially available from, e.g., Novo Nordisk A/S).
The cells were used 7-9, days after initiation of differentiation. The cells were stimulated with increasing concentrations (0-300 nM) of the FGF21 analogues or derivatives of the invention for 20 hours in basal medium. Before addition of 3H-deoxy-glucose (in what follows: the tracer) the cells were washed in warm (approximately 37° C.) assay buffer (PBS with 1 mM MgCl2 and 2 mM CaCl2), HEPES and 0.1% Human serum albumin) and the cells were incubated with the tracer for 1 hour. This incubation was terminated by washing twice in ice cold assay buffer. The cells were lysed with Triton X-100 and lysates transferred to a 96 wells plate, microscint-40 (commercially available from, e.g., Perkin Elmer) was added and amount of tracer counted in a TOP-counter (e.g. a Packard top-counter from Perkin Elmer). The EC50 and Emax of the FGF21 compound in question were calculated. The results which are shown in tables 4-5 below indicate the EC50 (potency) and Emax (efficacy) of the FGF21 analogues and derivatives, respectively.

[2] = target: FGF receptor/BKL complex; test: FGF receptor potency in an Erk phosphorylation assay in HEK293 overexpressing human BKL; type: cell-based; details: for EC50: HEK293/BKL cells, pERK after 12 minutes
Sequence of FGF receptor/BKL complex (Q86Z14 whole entry, one chain of several): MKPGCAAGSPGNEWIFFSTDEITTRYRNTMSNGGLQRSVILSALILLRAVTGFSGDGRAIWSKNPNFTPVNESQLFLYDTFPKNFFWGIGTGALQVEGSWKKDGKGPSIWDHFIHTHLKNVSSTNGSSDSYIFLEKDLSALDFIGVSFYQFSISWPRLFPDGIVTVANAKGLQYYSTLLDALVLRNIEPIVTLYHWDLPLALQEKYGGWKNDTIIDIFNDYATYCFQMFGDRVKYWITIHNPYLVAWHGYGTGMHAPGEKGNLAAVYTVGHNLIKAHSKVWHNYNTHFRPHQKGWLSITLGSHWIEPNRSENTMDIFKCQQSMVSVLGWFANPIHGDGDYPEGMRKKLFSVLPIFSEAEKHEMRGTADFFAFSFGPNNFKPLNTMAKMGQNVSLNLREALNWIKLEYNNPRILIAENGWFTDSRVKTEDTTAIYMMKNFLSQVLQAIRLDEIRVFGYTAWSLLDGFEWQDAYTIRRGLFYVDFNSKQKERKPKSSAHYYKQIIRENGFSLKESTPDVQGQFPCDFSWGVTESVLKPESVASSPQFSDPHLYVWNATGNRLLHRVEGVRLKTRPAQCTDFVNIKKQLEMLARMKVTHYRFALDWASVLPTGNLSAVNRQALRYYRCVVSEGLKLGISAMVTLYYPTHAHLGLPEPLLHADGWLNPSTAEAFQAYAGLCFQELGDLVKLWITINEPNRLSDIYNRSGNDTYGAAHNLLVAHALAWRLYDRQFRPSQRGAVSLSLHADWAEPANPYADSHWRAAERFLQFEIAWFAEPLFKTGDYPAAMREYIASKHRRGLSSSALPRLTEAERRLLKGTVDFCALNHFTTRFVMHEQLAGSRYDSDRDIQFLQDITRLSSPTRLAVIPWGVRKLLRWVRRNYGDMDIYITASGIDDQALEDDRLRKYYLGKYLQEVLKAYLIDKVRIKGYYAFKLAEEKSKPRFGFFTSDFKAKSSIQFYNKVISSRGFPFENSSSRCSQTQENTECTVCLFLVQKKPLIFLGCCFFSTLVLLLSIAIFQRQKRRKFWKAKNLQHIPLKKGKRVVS
Experimental: In order to test the binding of the FGF21 derivatives to albumin, the assay was performed in the absence of serum albumin as well as in the presence of human serum albumin (HSA) (0.1% final assay concentration). An increase in EC50 value (decrease in potency) in the presence of serum albumin for FGF21 derivatives would indicate binding to serum albumin and represents a method to predict a protracted pharmacokinetic profile of the test substance in animal models. MetFGF21 (SEQ ID NO:2) is included for reference.
HEK293 cells endogenously express several FGF receptors, including FGFR1c, FGFR3c and FGFR4. These cells are unresponsive to FGF21 until transfected with the co-receptor beta-klotho (BKL). Activation of the FGF receptor/BKL complex leads to activation of the MAPK/ERK signalling pathway and phosphorylation of ERK. The level of phosphorylated ERK (pERK) at a given time point increases with increasing concentrations of FGF21. As described below the level of pERK is measured after 12 minutes of stimulation with a range of FGF21 analogue concentrations.
The HEK293/beta-klotho cells are seeded with 30.000 cells/well in 96 well plates in DMEM (BioWhittaker #BE12-604F/U1), supplemented with 10% FCS (Gibco #16140-071), 1% penicillin/streptomycin (Gibco #15140), 100 µg/ml Hygromycin B, (Calbiochem, # 400052). Two days later and 2 hours before addition of compound the cell medium is exchanged with 100 ∞l basal medium (DMEM (BioWhittaker #BE12-604F/U1)). The FGF21 analogues are diluted in assay medium (DMEM (BioWhittaker #BE12-604F/U1) supplemented with 0.02% Tween20), warmed to 37° C., added to the cells (100 μl) and incubated at 37° C. for 12 minutes. The FGF21 derivatives were also tested in the presence of 0.1% HSA (Sigma—A1887). All medium is quickly removed and 50 μl lysis buffer is added pr. well. The plate is shaken for 5 minutes and the lysate is ready for measurement of pERK. pERK is measured in 384 well plates with the AlphaScreen SureFire kit (PerkinElmer #TGRES10K). This kit is based on ERK and pERK specific antibodies coupled to donor and acceptor beads. The presence of pERK will bring acceptor and donor beads in close proximity and a signal is generated that is read on EnVision. The data are analysed using GraphPad Prism and the potency of the FGF21 proteins is described as absolute EC50 value.

[3] = presence of 0.1% HSA, read-out: EC50 (0.1% HSA)

Molecule	EC50 [1] [nM]	Glucose uptake Emax [1] [%]	EC50 ([2]; absence of HSA, read-out: EC50) [nM]	EC50 [2, 3] [nM]	potency in HEK293/BKL cells compared with MetFGF21 or corresponding analogue (in words) ([2]; absence of HSA)
S{Beta-178}-[2-[2-[[2-[2-[2-[[2-[2-[2-[[(4S)-4-carboxy-4-(15-carboxypentadecanoyl-amino)butanoyl]amino]ethoxy]ethoxy]acetyl]amino]ethoxy]ethoxy]acetyl]amino]-ethylamino]-2-oxoethyl]-Ala[Gln121,Leu168,Cys178]FGF21 [Compound 11]	186	59	167	137	–
B1	107	54	107	134	–
B2	–	–	5	3	–
B3	24	53	5	133	–
B4	2.6	102	2.3	–	potency similar to both MetFGF21 and Compound 2
B5	73	84	227	–	–
B6	5	74	27	–	only slightly decreased as compared to MetFGF21
B7	25	77	69	–	–
B8	50	69	105	–	–
B9	73	72	20	–	–

— patent publication US20170182124A1, “FGF21 Derivatives and Uses Thereof” (Novo Nordisk A/S, priority 2014, published 2017)
